# According to patent US20190127461A1 (ORDER MADE MEDICAL RESEARCH, published 2019):
# T1: ICD4 (region consisting of amino acids at positions 196 to 299 of MCT5) (human)
# T1 construct: Immunogen and ELISA coating antigen
# T1 chain: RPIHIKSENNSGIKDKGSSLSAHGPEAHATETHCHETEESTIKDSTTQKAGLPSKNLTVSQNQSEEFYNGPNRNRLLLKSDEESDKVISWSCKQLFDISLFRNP
# B1: anti-MCT5 monoclonal antibody of clone No. IMI4C4a (antibody, V domains shown)
# VH: EVQLQQSGAELVRPGALVKLSCKASGFNIKDYYMFWVKQRPEQGLEWIGWIDPENGNTIFDPKFQGKASITADTSSNTAYLQLSSLTSEDTAVYYCARMITTYYYAMDFWGQGTSVTVSS
# VL: QLVLTQSSSASFSLGASAKLTCTLSSQHSTYTIEWYQQQPLKPPKYVMELKKDGSHSTGDGIPDRFSGSSSGADRYLSVSSIQPEDEAIYICGVGYTIKEQFVYVFGGGTK
# notes: Mouse monoclonal antibody from a hybridoma, detected with anti-mouse IgG; also called antibody IMI4C4a; Mouse-Mouse hybridoma IMI4C4a
# Experiments:
# [1] = molecular target: T2, MCT5 (Monocarboxylate transporter 5) (human, UniProt O15374 1-487); test: flow cytometry on intact HCT116 cells, Alexa 488-labeled secondary antibody; negative control is cells without IMI4C4a
# T2 construct: Membrane transporter on intact human cancer cells: MCF7-MCT5 (overexpressing), and MDA-MB231, HCT116 and SK-BR3 (endogenous); also called native MCT5; MCT5 isoform 1
# Protocol: HCT116 cells (which are human colorectal cancer cells) were cultured to reach 90% confluency. After being washed twice with PBS(-), the cells were collected with Accutase (Life Technologies) and suspended at 4×10⁵ cells in […] of PBS(-) containing 1% FBS. To this suspension, the antibody IMI4C4a was added at a final concentration of […] and reacted on ice for 60 minutes. For use as a control, a cell suspension free from the antibody IMI4C4a was prepared.
# [2] = molecular target: T1, ICD4 (region consisting of amino acids …); test: ELISA, hybridoma culture supernatant on immobilized ICD4, POD-labeled anti-mouse immunoglobulin
# Protocol: Blood samples which had been collected from mice through their tail veins and diluted 1/160,000 with PBS(-), or alternatively, culture supernatants collected from wells in which hybridomas were growing were analyzed for their antibody titer. ICD4 was diluted with PBS(-) and dispensed into 96-well ELISA plates (Nunc) in an amount of 50 ng per well, and immobilized onto the plate surface by being allowed to stand at room temperature for 1 hour. Then, after the plates were washed three times with 350 μL of TBS-T (25 mM Tris, 150 mM NaCl, 0.05% (v/v) Tween 20, pH 7.4), PBS-T containing 5% skimmed milk was dispensed in a volume of 300 μL per well to conduct blocking for 1 hour at room temperature. After washing with TBS-T, the diluted blood samples or the culture supernatants were dispensed into the ICD4-immobilized ELISA plates and reacted for 1 hour at room temperature. After washing with TBS-T, a 10,000-fold dilution of peroxidase (hereinafter abbreviated as POD)-labeled anti-mouse immunoglobulin antibody (BETHYL) was dispensed in a volume of 100 μL per well and reacted for 1 hour at room temperature. […] After the reaction was stopped with 1.5 N sulfuric acid, the plates were measured for absorbance at 490 nm with a plate reader (Molecular Devices). […]
# T2 sequence (O15374 whole entry, canonical isoform): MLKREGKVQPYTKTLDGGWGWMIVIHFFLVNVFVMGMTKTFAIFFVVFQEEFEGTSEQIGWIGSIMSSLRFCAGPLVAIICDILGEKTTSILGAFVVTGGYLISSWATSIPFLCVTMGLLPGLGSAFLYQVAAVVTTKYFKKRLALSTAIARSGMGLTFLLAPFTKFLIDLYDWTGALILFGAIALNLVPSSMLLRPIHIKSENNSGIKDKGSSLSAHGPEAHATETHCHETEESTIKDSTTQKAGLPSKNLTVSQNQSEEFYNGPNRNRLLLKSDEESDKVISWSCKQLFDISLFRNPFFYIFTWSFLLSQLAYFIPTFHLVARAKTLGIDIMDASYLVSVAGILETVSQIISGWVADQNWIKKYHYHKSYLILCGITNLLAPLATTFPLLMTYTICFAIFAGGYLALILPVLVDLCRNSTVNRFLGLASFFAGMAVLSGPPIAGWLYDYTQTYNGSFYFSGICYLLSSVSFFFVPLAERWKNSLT
binder,measurement,setting,value
B1,binding result,[1],binds
same,binding result,[2],binds
